In patent US20090180952A1 one finds Kd and EC50 (read off the curve) data, which are given here for one substance.

Assay [1] concerns the target recombinant soluble urokinase plasminogen activator receptor (suPAR, aa 1-279) (UniProt Q03405). As to the kind of experiment: direct binding assay (format and antigen form not stated).
Assay [2] has the same target. As to the kind of experiment: ELISA on suPAR, bound Biotin-ATN-658 detected with HRP-streptavidin.

Regarding mAb ATN-658 (antibody), the dissociation constant (Kd) in assay [1] stood at 1 nM. In addition, the EC50 (read off the curve) in assay [2] amounted to 0.2 nM.
